Target: T1, CDC5L/PLRG1 interaction in HeLa nuclear extract (Homo sapiens, UniProt O43660+Q99459)
T1 construct: wild type CDC5L immunoprecipitated from the extract using a peptide anti-CDC5L antibody; endogenous in cells; host or cells: HeLa nuclear extract
Assay: disruption of CDC5L/PLRG1 interaction in HeLa nuclear extract (co-immunoprecipitation with anti-CDC5L)
Type: binding
Procedure: (A) ΔCDC5Lh or ΔPLRG1f (approximately 1 nmole) was added to approximately 100 μg of HeLa nuclear extract followed by immunoprecipitation using about 15-20 μg rabbit anti-CDC5L antibodies. The immunoprecipitates were subsequently probed with sheep polyclonal anti-CDC5L and anti-PLRG1 antibodies. Lane 1 contained nuclear extract alone. […] Lanes 4 and 5 contained negative control immunoprecipitation reactions using antibodies to HCF (a nuclear protein) and rabbit pre-immune IgG. The panels labelled i and ii were probed with anti-CDC5L and anti-PLRG1 antibodies respectively. The arrows on the right of the figure indicate the protein bands.
Immunoprecipitations of the spliceosomal proteins from nuclear extract were done using affinity purified peptide antibodies. 50 μl of nuclear extract (4-5 mg/ml) were pre-cleared for 1 hr at 4° C. on 25 μl of settled protein G or A sepharose (Pharmacia) or protein G/A agarose beads (Boehringer) that had been pre-incubated with 10 μg of sheep pre-immune IgG. The pre-cleared nuclear extract was diluted 10 times (except in immunodepletion experiments) with PBS buffer containing 0.5% Triton X-100 before adding to protein-G sepharose or agarose beads (25 μl) that had been pre-incubated with 30 pmoles of antibody for 1 hr at 4° C. Immunoprecipitations were carried out at 4° C. for 2-16 hrs. The immunoprecipitates were washed three times at 4° C. with 1 ml PBS containing 0.5% Triton X-100. Protein-G beads carrying the immune complexes were collected after each wash by centrifugation at 1500 g for 1 min. For immunodepletion experiments a higher amount of antibody (0.33 nmole/250 μg) of HeLa nuclear extract were used during the immunoprecipitation step.
SDS PAGE gel analysis was done as described previously (Laemmli, 1970). […] Protein bands were detected by developing blots with the ECL kit (Amersham) according to the manufacturer's instructions or using NBT (60 μl of a 30 mg/ml solution)/BCIP (60 μl of a 25 mg/ml solution) in 10 ml of alkaline phosphatase buffer (0.1M NaHCO3, 1 mM MgCl2, pH 9.8) for colorimetric detection on the membrane. […]

T1 sequence (Q99459 whole entry): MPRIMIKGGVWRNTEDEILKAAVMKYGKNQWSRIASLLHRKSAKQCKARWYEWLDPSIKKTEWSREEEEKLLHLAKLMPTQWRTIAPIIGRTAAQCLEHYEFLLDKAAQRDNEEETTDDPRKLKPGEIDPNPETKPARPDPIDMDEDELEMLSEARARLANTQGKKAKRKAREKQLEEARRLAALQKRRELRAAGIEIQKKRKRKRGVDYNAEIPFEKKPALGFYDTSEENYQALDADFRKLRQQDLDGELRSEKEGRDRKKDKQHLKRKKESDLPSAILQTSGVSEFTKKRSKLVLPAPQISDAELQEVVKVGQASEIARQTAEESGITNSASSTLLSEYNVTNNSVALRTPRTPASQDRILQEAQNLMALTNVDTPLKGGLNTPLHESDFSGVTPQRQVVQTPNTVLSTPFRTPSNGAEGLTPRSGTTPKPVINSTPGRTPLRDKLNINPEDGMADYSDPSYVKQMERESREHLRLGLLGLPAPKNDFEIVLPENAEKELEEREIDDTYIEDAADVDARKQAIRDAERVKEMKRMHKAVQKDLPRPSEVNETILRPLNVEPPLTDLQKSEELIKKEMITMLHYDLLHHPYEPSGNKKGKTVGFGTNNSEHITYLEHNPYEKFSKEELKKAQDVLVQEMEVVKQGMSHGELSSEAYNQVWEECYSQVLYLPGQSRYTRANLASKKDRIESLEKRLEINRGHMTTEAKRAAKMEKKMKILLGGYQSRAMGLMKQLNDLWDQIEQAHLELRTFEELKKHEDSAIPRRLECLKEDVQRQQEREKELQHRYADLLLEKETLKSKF
T1 sequence (O43660 whole entry): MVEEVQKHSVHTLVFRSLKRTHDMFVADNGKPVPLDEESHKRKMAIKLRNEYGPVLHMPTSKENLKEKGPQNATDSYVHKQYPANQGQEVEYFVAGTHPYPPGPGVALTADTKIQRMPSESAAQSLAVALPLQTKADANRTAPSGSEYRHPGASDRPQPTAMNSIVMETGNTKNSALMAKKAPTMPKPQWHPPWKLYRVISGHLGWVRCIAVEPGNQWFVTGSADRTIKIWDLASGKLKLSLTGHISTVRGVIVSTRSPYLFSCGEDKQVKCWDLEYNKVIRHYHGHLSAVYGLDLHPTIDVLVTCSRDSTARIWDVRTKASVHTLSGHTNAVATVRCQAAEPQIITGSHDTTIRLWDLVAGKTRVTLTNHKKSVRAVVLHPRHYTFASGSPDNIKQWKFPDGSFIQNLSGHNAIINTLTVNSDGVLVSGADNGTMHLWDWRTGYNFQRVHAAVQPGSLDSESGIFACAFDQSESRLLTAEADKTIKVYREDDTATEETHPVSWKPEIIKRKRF

B1: ΔCDC5Lh: CDC5L carboxyl terminal mutant protein from region h, amino acids 602-800, expressed in E. coli (protein, UniProt Q99459 602-800, looked up, fragment)
chain: TVGFGTNNSEHITYLEHNPYEKFSKEELKKAQDVLVQEMEVVKQGMSHGELSSEAYNQVWEECYSQVLYLPGQSRYTRANLASKKDRIESLEKRLEINRGHMTTEAKRAAKMEKKMKILLGGYQSRAMGLMKQLNDLWDQIEQAHLELRTFEELKKHEDSAIPRRLECLKEDVQRQQEREKELQHRYADLLLEKETLKS
Approximately 1 nmole added to approximately 100 μg HeLa nuclear extract, FIG. 7A
  disruption of CDC5L/PLRG1 interaction (co-immunoprecipitation of PLRG1 by anti-CDC5L antibodies): will disrupt the CDC5L/PLRG1 interaction
ΔCDC5Lh pre-incubated with ΔPLRG1f, FIG. 7Aii lane 7
  disruption of CDC5L/PLRG1 complex when pre-incubated with ΔPLRG1f: is blocked

Source: patent publication US20040253646A1, “Pre-mrna splicing screening assay” (priority 2001, published 2004)
